The target in this assay is CaM-Sepharose 4B (calmodulin on Sepharose resin) (UniProt P62157 1-149). Description: pull-down; equilibrium binding of purified synGAP (1-500 nM, 300 µl) to 50 µl CaM-Sepharose 4B, 60 min; 50 mM Tris pH 7.5, 200 mM NaCl, 5 mM TCEP, 2 mM CaCl2; bound protein by quantitative immunoblot; hyperbolic fit. Conditions: both partners purified.

By Kd is commonly meant the concentration at which binding is half-saturated. A high value points to weaker binding.

B1: sr-synGAP (residues 103-725) (domain or fragment)
chain: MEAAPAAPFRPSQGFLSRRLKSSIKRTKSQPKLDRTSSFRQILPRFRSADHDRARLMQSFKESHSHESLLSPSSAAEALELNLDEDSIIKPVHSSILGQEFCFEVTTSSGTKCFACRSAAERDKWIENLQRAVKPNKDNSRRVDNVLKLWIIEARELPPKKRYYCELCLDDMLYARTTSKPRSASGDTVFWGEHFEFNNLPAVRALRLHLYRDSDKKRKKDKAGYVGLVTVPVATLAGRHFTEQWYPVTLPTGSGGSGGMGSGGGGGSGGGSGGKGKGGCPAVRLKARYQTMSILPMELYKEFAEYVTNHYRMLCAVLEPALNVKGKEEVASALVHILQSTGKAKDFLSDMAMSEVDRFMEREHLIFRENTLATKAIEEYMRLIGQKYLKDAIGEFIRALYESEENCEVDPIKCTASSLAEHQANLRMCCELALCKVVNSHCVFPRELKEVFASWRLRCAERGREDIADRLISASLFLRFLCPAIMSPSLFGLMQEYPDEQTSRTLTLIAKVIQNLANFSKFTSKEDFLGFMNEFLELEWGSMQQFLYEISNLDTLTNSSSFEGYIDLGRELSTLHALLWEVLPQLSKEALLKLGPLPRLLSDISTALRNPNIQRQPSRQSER
Consider B1, for which binding was characterised by a dissociation constant (Kd) of 0.21 ± 0.03 µM.
